Drawing on patent US20150125463A1, this text covers Histoscore Average and Kd for two substances.

Assay [1] deals with human PD-L1 (on cells or in tissue) (human) (UniProt Q9NZQ7). Briefly: IHC histoscore (0-300), FFPE tumor NSCLC sample 1080754B; 28-8 at 2 ug/ml.
The target is the same in assay [2]. The assay can be described thus: IHC histoscore (0-300), FFPE tumor RCC sample 1164619B; 28-8 at 2 ug/ml.
Assay [3] shares this target. Briefly: IHC histoscore (0-300), FFPE tumor NSCLC sample 1080993B; 28-8 at 2 ug/ml.
Assay [4] deals with human PD-L1 (antigen of the surface plasmon resonance analysis) (human) (UniProt Q9NZQ7). Briefly: surface plasmon resonance; KD given for clone 28-8 alone. Background: Surface plasmon resonance follows binding to a sensor surface in real time, without labels.
human PD-L1 (antigen of the surface plasmon resonance analysis) (human), sequence (Q9NZQ7 19-238 limits assumed): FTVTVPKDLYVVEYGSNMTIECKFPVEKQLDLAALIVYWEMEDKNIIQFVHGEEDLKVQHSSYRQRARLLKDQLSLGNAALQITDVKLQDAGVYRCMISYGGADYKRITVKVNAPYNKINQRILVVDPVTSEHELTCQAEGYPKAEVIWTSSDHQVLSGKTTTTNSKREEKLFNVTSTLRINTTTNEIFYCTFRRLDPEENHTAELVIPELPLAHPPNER
The target in assay [5] is human PD-L1 (on cells or in tissue) (human) (UniProt Q9NZQ7). The assay can be described thus: IHC histoscore (0-300), FFPE tumor NSCLC sample 1080766B; 28-8 at 2 ug/ml.
For assay [6] the target is unchanged. The assay can be described thus: IHC histoscore (0-300), FFPE tumor Mel sample 1168657B; 28-8 at 2 ug/ml.
For assay [7] the target is unchanged. Briefly: IHC histoscore (0-300), FFPE tumor Mel sample T980747; 28-8 at 2 ug/ml.
For assay [8] the target is unchanged. The assay can be described thus: IHC histoscore (0-300), FFPE tumor NSCLC sample 1080790; 28-8 at 2 ug/ml.
For assay [9] the target is unchanged. The assay can be described thus: IHC histoscore (0-300), FFPE tumor RCC sample 1167809B; 28-8 at 2 ug/ml.
The target is the same in assay [10]. Briefly: IHC histoscore (0-300), FFPE tumor Mel sample T980744; 28-8 at 2 ug/ml.
For assay [11] the target is unchanged. Briefly: IHC histoscore (0-300), FFPE tumor Mel sample T030668; 28-8 at 2 ug/ml.
For assay [12] the target is unchanged. Briefly: IHC histoscore (0-300), FFPE tumor Mel sample T980744; 5H1 at 5 ug/ml.
For assay [13] the target is unchanged. Briefly: IHC histoscore (0-300), FFPE tumor RCC sample 1167809B; 5H1 at 5 ug/ml.
Assay [14] has the same target. The assay can be described thus: IHC histoscore (0-300), FFPE tumor NSCLC sample 1080993B; 5H1 at 5 ug/ml.
The target is the same in assay [15]. Briefly: IHC histoscore (0-300), FFPE tumor NSCLC sample 1080766B; 5H1 at 5 ug/ml.
For assay [16] the target is unchanged. Briefly: IHC histoscore (0-300), FFPE tumor NSCLC sample 1080754B; 5H1 at 5 ug/ml.
Assay [17] has the same target. The assay can be described thus: IHC histoscore (0-300), FFPE tumor RCC sample 1164619B; 5H1 at 5 ug/ml.
Assay [18] has the same target. The assay can be described thus: IHC histoscore (0-300), FFPE tumor Mel sample T030668; 5H1 at 5 ug/ml.
Assay [19] shares this target. The assay can be described thus: IHC histoscore (0-300), FFPE tumor NSCLC sample 1080790; 5H1 at 5 ug/ml.
Assay [20] has the same target. Briefly: IHC histoscore (0-300), FFPE tumor Mel sample 1168657B; 5H1 at 5 ug/ml.

human PD-L1 (on cells or in tissue) (human), sequence (Q9NZQ7 19-290): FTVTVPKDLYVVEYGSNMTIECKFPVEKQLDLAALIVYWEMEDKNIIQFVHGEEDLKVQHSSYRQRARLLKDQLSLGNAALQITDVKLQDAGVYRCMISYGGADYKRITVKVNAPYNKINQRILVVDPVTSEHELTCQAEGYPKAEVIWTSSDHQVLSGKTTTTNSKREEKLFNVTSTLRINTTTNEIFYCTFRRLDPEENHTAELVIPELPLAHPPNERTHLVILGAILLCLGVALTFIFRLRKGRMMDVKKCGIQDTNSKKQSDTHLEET

As to “rabbit anti-human PD-L1 mAb 28-8 (antibody)”, the Histoscore Average is 261 in assay [1]; 4 in assay [2]; 16 in assay [3]; 130 in assay [5]; 0 in assay [6]; 9 in assay [7]. Moreover, the Histoscore Average in assay [8] was 37; in [9], 125; in assay [10], 123; in assay [11], 113. For the same substance, in [4], the Kd (as a rule, a measure of binding affinity in units of concentration) was found to be 0.1 nM.
For “murine anti-human PD-L1 mAb 5H1 (antibody)”, the Histoscore Average was 98 in assay [12]; 108 in assay [13]; 12 in assay [14]; 103 in assay [15]; 245 in assay [16]; 4 in [17]. In addition, the Histoscore Average in [18] was determined as 98; in assay [19], 40; in assay [20], 0.
